Experimental data reported in the supplement of paper PMC7877785.
± gives the uncertainty stated by the source.

Test: self-splicing fitness, log relative to wild type (ln ratio); higher = more splicing; Tetrahymena group I intron in knt gene, E. coli kanamycin selection, DiMSum; sequences stand for … in CUCUCU…GGAGGGAAAAGUUAUCAGGCAUGCACCUGGUAGCUAGUCUUUAAACCAAUAGAUUGCAUCGGUUUAAAAGGCAAGACCGUCAAAUUGCGGGAAAGGGGUCAACAGCCGUUCAGUACCAAGUCUCAGGGGAAACUUUGAGAUGGCCUUGCAAAGGGUAUGGUAAUAAGCUGACGGACAUGGUCCUAACCACGCAGCCAAGUCCUAAGUCAACAGAUCUUCUGUUGAUAUGGAUGCAGUUCACAGACUAAAUGUCGGUCGGGGAAGAUGUAUUCUUCUCAUAAGAUAUAGUCGGACCUCUCCUUAAUGGGAGCUAGCGGAUGAAGUGAUGCAACACUGGAGCCGCUGGGAACUAAUUUGUAUGCGAAAGUAUAUUGAUUAGUUUUGGAGUACUCGUGGUCG
Summary of the method: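 Colonies from six replicate transformations of E. coli BL21(DE3) were pooled and amplicon-sequenced on an Illumina HiSeq 2500. The library placed an intron with all eight P1ex-region nucleotides randomised inside the knt kanamycin-resistance gene on pET-22b(+), and cells grew overnight at 37°C or 30°C on LB agar with or without 25 μg/mL kanamycin (plus 100 μg/mL carbenicillin, 50 μM IPTG, 0.2% rhamnose). Fitness is the DiMSum error-weighted combination of wild-type-normalised replicate fold changes, kanamycin versus none.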

Sequence | self-splicing fitness (ln) (30 °C) | self-splicing fitness (ln) (37 °C)
UACCAGCAAUAUUACGGUGU | -3.64 ± 0.14 | -2.36 ± 0.13
ACCCAGCAAUAUUACGAAAC | -2.77 ± 0.12 | -1.04 ± 0.15
UUAUAGCAAUAUUACGAAUG | -2.43 ± 0.16 | -0.727 ± 0.17
UGAUAGCAAUAUUACGUCUA | 0.0941 ± 0.089 | -0.107 ± 0.094
CGCGAGCAAUAUUACGCAUC | -3.36 ± 0.38 | -0.312 ± 0.28
AAGCAGCAAUAUUACGUCAG | -3.06 ± 0.2 | -2.43 ± 0.23
ACGCAGCAAUAUUACGACUG | -2.72 ± 0.14 | -2.02 ± 0.2
ACAUAGCAAUAUUACGCACG | -2.07 ± 0.2 | -1.01 ± 0.15
AUUGAGCAAUAUUACGUCGC |  | -1.8 ± 0.46
ACGGAGCAAUAUUACGACAG | -2.34 ± 0.26 | -2.62 ± 0.34
GGCUAGCAAUAUUACGGUGG | -1.23 ± 0.096 | -0.767 ± 0.1
UGGCAGCAAUAUUACGACAG | -1.02 ± 0.087 | 0.224 ± 0.11
UCCCAGCAAUAUUACGGGCC | -3.03 ± 0.22 | -1.7 ± 0.18
GGACAGCAAUAUUACGCGAC | -2.27 ± 0.28 | -1.09 ± 0.24
GCUGAGCAAUAUUACGGCCC |  | -2.32 ± 0.35
AUUCAGCAAUAUUACGAUUA | -0.138 ± 0.097 | 0.146 ± 0.089
AAGCAGCAAUAUUACGUGGA | -3.63 ± 0.21 | -1.44 ± 0.11
UUGGAGCAAUAUUACGCUUC | -3.11 ± 0.34 | -0.757 ± 0.28
UCCGAGCAAUAUUACGACAG | -3.18 ± 0.3 | -2.55 ± 0.3
CGGAAGCAAUAUUACGCAUA |  | -1.12 ± 0.27

Sequence | self-splicing fitness (ln) (30 °C) | self-splicing fitness (ln) (37 °C)
UAACAGCAAUAUUACGUUGC |  | -2.84 ± 0.25
UUCUAGCAAUAUUACGUAAG | -2.51 ± 0.15 | -0.938 ± 0.15
AGUCAGCAAUAUUACGUAUG | -3.48 ± 0.18 | -2.43 ± 0.19
GAUCAGCAAUAUUACGAUAU | -0.637 ± 0.08 | 0.658 ± 0.11
GUUAAGCAAUAUUACGGAUA | -2.09 ± 0.12 | -1.61 ± 0.16
GCUGAGCAAUAUUACGCCAC | -4.02 ± 0.27 | -2.27 ± 0.26
GUUAAGCAAUAUUACGACUC | 0.708 ± 0.15 | 0.214 ± 0.17
GCUGAGCAAUAUUACGUCGC | -2.96 ± 0.26 | -2.17 ± 0.24
CUGUAGCAAUAUUACGUUAU | -3.21 ± 0.22 | -2.83 ± 0.23
UAAUAGCAAUAUUACGCAGU | -3.55 ± 0.37 | -2.1 ± 0.34
GCGUAGCAAUAUUACGACUA | 0.106 ± 0.14 | 0.571 ± 0.14
UUUUAGCAAUAUUACGCACG | -0.889 ± 0.13 | -0.745 ± 0.17
GAUCAGCAAUAUUACGCAGC | -1.64 ± 0.11 | -0.448 ± 0.13
ACUGAGCAAUAUUACGAGGC | -3.07 ± 0.23 | -2.59 ± 0.36
ACGAAGCAAUAUUACGACGG | -1.2 ± 0.12 | -0.994 ± 0.094
AUCCAGCAAUAUUACGAUUC | -1.5 ± 0.11 | -0.86 ± 0.12
AGAGAGCAAUAUUACGCGUG | -3.83 ± 0.36 | -1.44 ± 0.18
UAAGAGCAAUAUUACGUUCG | -1.48 ± 0.11 | -0.784 ± 0.14
CCUUAGCAAUAUUACGCAGU | -3.81 ± 0.23 | -2.32 ± 0.23
